Laboratory results taken from publication PMC4138323 (RNA, 2014).
Blank lines part the entries; values can stand above or below the binder they belong to.

B1: GST–CNOT1_(1088–1312) (domain or fragment)
chain: ENIQEKIAFIFNNLSQSNMTQKVEELKETVKEEFMPWVSQYLVMKRVSIEPNFHSLYSNFLDTLKNPEFNKMVLNETYRNIKVLLTSDKAAANFSDRSLLKNLGHWLGMITLAKNKPILHTDLDVKSLLLEAYVKGQQELLYVVPFVAKVLESSIRSVVFRPPNPWTMAIMNVLAELHQEHDLKLNLKFEIEVLCKNLALDINELKPGNLLKDKDRLKNLDEQLS
B3: maltose-binding protein (MBP)-tagged full-length human DDX6 (natural protein)
chain: MSTARTENPVIMGLSSQNGQLRGPVKPTGGPGGGGTQTQQQMNQLKNTNTINNGTQQQAQSMTTTIKPGDDWKKTLKLPPKDLRIKTSDVTSTKGNEFEDYCLKRELLMGIFEMGWEKPSPIQEESIPIALSGRDILARAKNGTGKSGAYLIPLLERLDLKKDNIQAMVIVPTRELALQVSQICIQVSKHMGGAKVMATTGGTNLRDDIMRLDDTVHVVIATPGRILDLIKKGVAKVDHVQMIVLDEADKLLSQDFVQIMEDIILTLPKNRQILLYSATFPLSVQKFMNSHLQKPYEINLMEELTLKGVTQYYAYVTERQKVHCLNTLFSRLQINQSIIFCNSSQRVELLAKKISQLGYSCFYIHAKMRQEHRNRVFHDFRNGLCRNLVCTDLFTRGIDIQAVNVVINFDFPKLAETYLHRIGRSGRFGHLGLAINLITYDDRFNLKSIEEQLGTEIKPIPSNIDKSLYVAEYHSEPVEDEKP

Columns and labels:
Test in all cases: pull-down
[1] = molecular target: B3
[2] = molecular target: T1, MBP–DDX6 N-term (residues 1–302) (human, UniProt P26196 1-302)
T1 sequence: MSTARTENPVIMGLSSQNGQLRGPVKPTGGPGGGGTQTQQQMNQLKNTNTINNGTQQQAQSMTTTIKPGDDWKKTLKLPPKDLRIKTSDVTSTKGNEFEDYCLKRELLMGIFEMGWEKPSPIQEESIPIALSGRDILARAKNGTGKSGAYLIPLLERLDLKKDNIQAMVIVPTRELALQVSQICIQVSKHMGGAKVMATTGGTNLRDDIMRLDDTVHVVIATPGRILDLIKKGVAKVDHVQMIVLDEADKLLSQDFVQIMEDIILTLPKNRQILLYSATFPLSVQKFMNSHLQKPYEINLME

[3] = molecular target: B1
[4] = molecular target: GST–CNOT1_(1075–1575) (human, UniProt A5YKK6-2 1075-1575)
Sequence of GST–CNOT1_(1075–1575) (A5YKK6 1080-1580): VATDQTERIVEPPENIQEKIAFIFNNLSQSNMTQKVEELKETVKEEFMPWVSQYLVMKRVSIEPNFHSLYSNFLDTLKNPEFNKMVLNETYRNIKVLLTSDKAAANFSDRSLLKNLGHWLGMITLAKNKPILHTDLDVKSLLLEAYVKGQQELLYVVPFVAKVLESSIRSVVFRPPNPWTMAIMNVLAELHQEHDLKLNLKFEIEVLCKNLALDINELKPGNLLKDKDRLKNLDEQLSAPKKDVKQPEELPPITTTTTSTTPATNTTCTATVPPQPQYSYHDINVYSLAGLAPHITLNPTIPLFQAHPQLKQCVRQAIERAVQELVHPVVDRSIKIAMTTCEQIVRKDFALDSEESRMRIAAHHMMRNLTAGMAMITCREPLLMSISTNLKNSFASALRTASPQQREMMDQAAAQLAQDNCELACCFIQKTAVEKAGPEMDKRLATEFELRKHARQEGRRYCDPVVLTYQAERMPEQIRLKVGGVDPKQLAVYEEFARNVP

Binder: B1
binding result [1]: binds | binding result [2]: binds

binding result [3]: binds
B2: MBP–DDX6 C-term (residues 303–483) (domain or fragment)
chain: ELTLKGVTQYYAYVTERQKVHCLNTLFSRLQINQSIIFCNSSQRVELLAKKISQLGYSCFYIHAKMRQEHRNRVFHDFRNGLCRNLVCTDLFTRGIDIQAVNVVINFDFPKLAETYLHRIGRSGRFGHLGLAINLITYDDRFNLKSIEEQLGTEIKPIPSNIDKSLYVAEYHSEPVEDEKP

Binder: B3
binding result [4]: binds
